For orientation: Kd means the equilibrium constant for the complex coming apart.

The assay has as its target SARS-CoV-2 spike RBD (wild type) (SARS-CoV-2) (UniProt P0DTC2). Kind of assay: BLI. (In general: In BLI a coated tip is dipped into the sample, and binding shifts an interference pattern.)

As to mNb6(108FFY) (VHH), the Kd is 0.91 nM.

(Values after PMC9288967.)
